How the values were obtained:
[1] = tested on: acutely dissociated TG neurons; test: Calcium imaging, PRL effect on capsaicin-evoked Ca2+ influx; format: cell-based, rat
Text: The binding of PRL to the PRL-R activates a variety of intracellular signaling pathways in non-neuronal cells (Bole-Feysot et al. 1998), some of which are known to be involved in the sensitization of TRPV1 in nociceptors (Cesare and McNaughton, 1996). To evaluate whether PRL sensitizes capsaicin activation of TRPV1, changes in calcium (Ca^2+) influx were quantified in acutely dissociated TG neurons. FIG. 4A depicts the results of Ca^2+ imaging experiments performed in acutely dissociated TG neurons. Data are presented as mean % of vehicle±SEM (n=30/group, ***=p<0.001; two-way ANOVA). FIG. 4B depicts representative traces of Ca^2+ imaging experiments performed in neurons from proestrous rats. Neurons were treated with 40 nM PRL or vehicle for 10 min followed by a 40 sec capsaicin (30 nM) application. […] Data are presented as mean F340/F380±SEM (n=8/group; error bars are SEM). […] PRL appears to increase the magnitude of capsaicin-evoked Ca^2+ influx in TG neurons by about 71% compared to that observed in TG neurons not exposed to PRL, whereas PRL had no effect on capsaicin-evoked calcium influx in neurons from OVX control rats (FIG. 4A). […]
Calcium Imaging: TG cells cultured on coverslips were loaded with the cell-permeable calcium sensitive dye FURA 2-AM (1 ug/ml) (Molecular Probes, Eugene, Oreg.) for 30 min at 37° C. in Standard External Solution (SES) of the following composition in mM: 140 NaCl, 5 KCl, 2 CaCl2, 1 MgCl2, 10 glucose and 10 HEPES, pH 7.4. […] Fluorescence images were collected in 5 sec intervals throughout the experiment, analyzed, and the F340/F380 ratio calculated by the Methafluor Software (MethaMorph, Web Universal Imaging Corporation, Downingtown, Pa.). […] The magnitude of calcium influx was determined by subtracting the averaged baseline 30 sec prior to the capsaicin stimulus from the peak achieved by the capsaicin stimulation for each cell (ratiometric method, ΔF340/F380).

[2] = tested on: TG neurons; test: Patch clamp, capsaicin-induced currents (Icap); format: cell-based, rat
Protocol: Since application of PRL rapidly increases capsaicin-induced calcium accumulation and neuropeptide release, the role of PRL in modulating capsaicin-induced currents (Icap) was examined. TRPV1 desensitization of cultured TG neurons was induced through the repeated application of 100 nM capsaicin to the cultures (Vellani et al., 2001; Bonnington and McNaughton, 2003). The sub-maximal concentration of capsaicin used was effective in inducing desensitization and permitted the investigation PRL-evoked re-sensitization or further sensitization of TRPV1. […] Data are presented as mean±SEM of PRL-treated ΔIcap (3rd Icap-2^ndIcap) normalized to vehicle treated ΔIcap, (n=8-12/group, *=p<0.05 and **=p<0.01; two-way ANOVA). […] Acutely dissociated TG neurons from female rats were locally pretreated with vehicle or PRL (40 nM) for 60 sec, washed for 60 sec and subjected to a single capsaicin pulse (40 sec, 0.1 nM-5 μM). Data are shown as mean±SEM (n=12-20/group, *=p<0.05 and ***=p<0.001 vehicle vs. PRL; two-way ANOVA). FIGS. 5C and 5D depict representative traces of Icap recordings from intact (FIG. 5C) and OVX (FIG. 5D) female rat TG neurons. Concentration of applied CAP and PRL are indicated. The duration CAP and PRL treatment was 30 sec and 60 sec, respectively. The magnitude of the second capsaicin-evoked inward currents (Icap) peak was subtracted from the third Icap peak to calculate the difference (ΔIcap). Data were normalized to the vehicle treated ΔIcap.
Patch Clamp Electrophysiology: All recordings were performed in whole-cell voltage-clamp (Vh=−60 mV) configuration. Recordings were acquired at 22-24° C. from the somata of neurons (15-45 pF) using an Axopatch200B amplifier and pCLAMP9.0 software (Axon Instruments, Union City, Calif.). Data were filtered at 0.5 kHz and sampled at 2 kHz. Borosilicate pipettes (Sutter, Novato, Calif.) were polished to resistances of 3-5 MΩ in pipette solution. Access resistance was compensated (40-80%) to 7-10 MΩ values when appropriate. Cell diameters were calculated using d=√[100*Cm/π], where d (μm) is cell diameter and Cm (pF) is membrane capacitance.
Standard external solution (SES) had the composition as described above. […] Drugs were applied using a fast, computer controlled pressure-driven 8-channel system (ValveLink8; AutoMate Scientific, San Francisco, Calif.).
FIG. 11B summarizes the effect of adding rhPRL on Icap of cultured TG neurons from male, female and OVX female rats. Number of recorded neurons and neurons in which effects were observed are indicated above the bars. The recordings were performed in whole-cell voltage clamp c(Vh=−60 mV) configuration. Solutions are SES and SIS.

B1: PRL: Ovine PRL [oPRL-21, BIO] provided by NHPP; prolactin polypeptide hormone (protein, UniProt P01240 31-229, looked up)
Prolactin: TPVCPNGPGNCQVSLRDLFDRAVMVSHYIHNLSSEMFNEFDKRYAQGKGFITMALNSCHTSSLPTPEDKEQAQQTHHEVLMSLILGLLRSWNDPLYHLVTEVRGMKGVPDAILSRAIEIEEENKRLLEGMEMIFGQVIPGAKETEPYPVWSGLPSLQTKDEDARHSAFYNLLHCLRRDSSKIDTYLKLLNCRIIYNNNC
increase in magnitude of capsaicin-evoked Ca2+ influx ([1]; PRL 40 nM 10 min, capsaicin 30 nM 40 sec, neurons from intact female rats): about 71% | effect on capsaicin-evoked calcium influx ([1]; PRL 40 nM, neurons from OVX control rats): had no effect | Ca2+ influx evoked by PRL on its own ([1]; PRL 40 nM, neurons from proestrous rats): did not evoke Ca^2+ influx on its own | effect of PRL pretreatment on capsaicin potency (Icap) ([2]; PRL 40 nM 60 sec, single capsaicin pulse 0.1 nM-5 μM, female rat TG neurons): increased capsaicin potency | concentration of maximal potentiation of Icap ([2]; TRPV1-desensitized TG neurons from naive female rats, 100 nM capsaicin): 40 nM | EC50 ([2]; TRPV1-desensitized TG neurons from naive female rats, 100 nM capsaicin, read-out: EC50 of Icap sensitization): 0.27 nM | effect on Icap ([2]; rat OVX TG neurons): had no observed effect

Source: patent US7507716B2, “Method for treating pain with prolactin antagonists” (Board of Regents, The University of Texas System, priority 2005, dated 2009)
